According to publication PMC9269880 (Science Advances, 2022):

B1: 3XFLAG-Swi6 (natural protein, S. pombe, UniProt P40381 1-328, looked up)
chain: MKKGGVRSYRRSSTSKRSVIDDDSEPELPSMTKEAIASHKADSGSSDNEVESDHESKSSSKKLKENAKEEEGGEEEEEDEYVVEKVLKHRMARKGGGYEYLLKWEGYDDPSDNTWSSEADCSGCKQLIEAYWNEHGGRPEPSKRKRTARPKKPEAKEPSPKSRKTDEDKHDKDSNEKIEDVNEKTIKFADKSQEEFNENGPPSGQPNGHIESDNESKSPSQKESNESEDIQIAETPSNVTPKKKPSPEVPKLPDNRELTVKQVENYDSWEDLVSSIDTIERKDDGTLEIYLTWKNGAISHHPSTITNKKCPQKMLQFYESHLTFRENE

What was measured:
H3K9me3 mononucleosome = H3K9me3 mononucleosome (UniProt P68431); assay: native gel or EMSA
cross-linking = target: the molecule itself; assay: cross-linking

Molecule	fold increase in H3K9me3 nucleosome binding specificity against WT Swi6 (H3K9me3 mononucleosome) [fold]	binding result (cross-linking)
Swi6^2XCD-GST (recombinant, 6XHis tag cleaved)	2	
B1		binds
